According to patent US20230287082A1 (published 2023):

Tests used:
[1] = target: NKp30 on human NK cells (human) (UniProt O14931); test: cell-based or functional assay
human NKp30 (human) [2] = target: human NKp30 (human) (UniProt O14931); test: BLI, ratio to ΔB7-H6_wt
human NKp30 (human) [3] = target: human NKp30 (human) (UniProt O14931); test: BLI, immunoligand on anti-hFc tip

Sequence of human NKp30 (human) (O14931 19-135 limits assumed): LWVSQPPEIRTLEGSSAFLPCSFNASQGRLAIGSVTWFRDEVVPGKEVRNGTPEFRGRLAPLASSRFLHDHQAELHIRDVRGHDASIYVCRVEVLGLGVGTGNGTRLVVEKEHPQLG
Sequence of NKp30 on human NK cells (human) (O14931 19-201): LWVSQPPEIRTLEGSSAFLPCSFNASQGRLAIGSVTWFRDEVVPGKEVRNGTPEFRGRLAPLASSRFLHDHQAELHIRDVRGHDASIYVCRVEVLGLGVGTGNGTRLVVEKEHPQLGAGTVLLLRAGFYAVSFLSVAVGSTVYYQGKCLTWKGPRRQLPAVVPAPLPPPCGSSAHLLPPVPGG

A431 EC50 with PBMC (pM) [1] [pM] | A549 EC50 with PBMC (pM) [1] [pM] | EC50 (pM), A431 lysis with PBMC [1] [pM] | EC50 improvement compared to ΔB7-H6 wt [1] [fold] | KD improvement compared to ΔB7-H6 wt (human NKp30 (human) [2]) [fold] | x-fold KD improvement (human NKp30 (human) [2]) [fold] | x-fold Koff improvement (human NKp30 (human) [2]) [fold] | Kd (human NKp30 (human) [3]) [nM] | koff (human NKp30 (human) [3]) [s⁻¹] | kon (human NKp30 (human) [3]) [M⁻¹ s⁻¹] | EC50 of tumor cell lysis, initial screening [1] [nM] | improved potency compared to wild-type ΔB7-H6, initial screening [1] [fold] | A431 EC50 with NK cells (pM) [1] [pM] | A549 EC50 with NK cells (pM) [1] [pM] | enhanced potency compared to the wild-type ΔB7-H6 immunoligand, initial screening [1] [fold] | increase in potency with purified NK cells on A431 compared to wild-type [1] [fold] | EC50 of A431 lysis with PBMC, initial screening [1] [nM] | Binder | half-maximal killing activity, initial screening [1] [pM]
150 | 556 | 21 | 41 | 11.9 | 11.9 | 5.2 | 34.5 | 0.0322 | 933000 |  |  |  |  |  |  |  | ΔB7-H6_S3#14-SEED-PGLALA (bispecific antibody, part only; not given: SEED Fc chains and hu225 Fab, part only) chain, part: DLKVEMMAGGTQITPLNDNVTIFCNIFYSQPLNITTMGITWFWKSLTFDKEVKVFEFYGDHQEAFRPGAIVSPWRLKSGDASLRLPGIQLEEAGEYRCEVVVTPYKAQGTVQLEVVASPAS | 
60.2 | 356 | 19.2 | 45 | 4.9 | 4.9 | 3 | 83 | 0.0556 | 669000 | 0.0276 | 41 |  |  |  |  |  | ΔB7-H6_S3#27-SEED-PGLALA (bispecific antibody, part only; not given: SEED Fc chains and hu225 EGFR Fab, part only) chain, part: DLKVEMMAGGTQITPLNDNVTIFCNIFYSQPLNITTMGITWFWKSLTFDKEVKVFEFWGDHQEAFRPGAIVSPWRLKSGDASLRLPGIQLEEAGEYRCEVIVTPYKAQGTVQLEVVASPAS | 
 |  |  |  |  |  |  | 11.7 | 0.0122 | 1.04e+06 |  |  |  |  |  |  |  | ΔB7-H6_S3#2-SEED-PGLALA (bispecific antibody, part only; not given: SEED Fc chains and hu225 EGFR Fab, part only) chain, part: DLKVEMMAGGTQITPLNDNVTIFCNIFYSQPLNITWMGITWFWKSLTFDKEVKVFEFWGDHQEAFRPGAIVSPWRLKSGDASLRLPGIQLEEAGEYRCEVVVTPYKAQGTVQLEVVASPAS | 
34.8 | 224 | 17.5 | 50 | 9.4 | 9.4 | 6.3 | 43.6 | 0.0269 | 616000 |  |  |  |  |  |  |  | ΔB7-H6_S3#31-SEED-PGLALA (bispecific antibody, part only; not given: SEED Fc chains and hu225 EGFR Fab, part only) chain, part: DLKVEMMAGGTQITPLNDNVTIFCNIFYSQPLNITIMGITWFWKSLTFDKEVKVFEFYGDHQEAFRPGAIVSPWRLKSGDASLRLPGIQLEEAGEYRCEVVVTPLKAQGTVQLEVVASPAS | 25.1
 |  |  |  |  |  |  | 23.9 | 0.0149 | 621000 |  |  |  |  |  |  |  | ΔB7-H6_S3#4-SEED-PGLALA (bispecific antibody, part only; not given: SEED Fc chains and hu225 Fab, part only) chain, part: DLKVEMMAGGTQITPLNDNVTIFCNIFYSQPLNITIMGITWFWKSLTFDKEVKVFEFWGDHQEAFRPGAIVSPWRLKSGDASLRLPGIQLEEAGEYRCEVVVTPLKAQGTVQLEVVASPAS | 
37.8 | 135 | 9.9 | 88 | 6.3 | 6.3 | 3.5 | 65.2 | 0.0486 | 745000 |  |  | 4.25 | 34.6 | 187 |  |  | ΔB7-H6_S3#25-SEED-PGLALA (bispecific antibody, part only; not given: SEED Fc chains and hu225 Fab, part only) chain, part: DLKVEMMAGGTQITPLNDNVTIFCNIFYSQPLNITWMGITWFWKSLTFDKEVKVFEFYGDHQEAFRPGAIVSPWRLKSGDASLRLPGIQLEEAGEYRCEVVVTPYKAQGTVQLEVVASPAS | 6
 |  |  |  |  |  |  | 285 | 0.376 | 1.32e+06 |  |  |  |  |  |  |  | ΔB7-H6_S2#6-SEED-PGLALA (bispecific antibody, part only; not given: SEED Fc chains and hu225 EGFR Fab, part only) chain, part: DLKVEMMAGGTQITPLNDNVTIFCNIFYFQPLNITEMGITWFWKSLTFDKEVKVFEFFGDHQEAFRPGAIVSPWRLKSGDASLRLPGIQLEEAGEYRCEVIVTPLKAQGTVQLEVVASPAS | 
29.9 | 133 | 8.7 | 100 | 33 | 33 | 16.6 | 12.4 | 0.0101 | 817000 |  |  | 2.8 | 31.3 |  | 87 |  | ΔB7-H6_S3#15-SEED-PGLALA (bispecific antibody, part only; not given: SEED Fc chains and hu225 Fab, part only) chain, part: DLKVEMMAGGTQITPLNDNVTIFCNIFYSQPLNITIMGITWFWKSLTFDKEVKVFEFWGDHQEAFRPGAIVSPWRLKSGDASLRLPGIQLEEAGEYRCEVVVTPYKAQGTVQLEVVASPAS | 
87.3 | 206 | 29.1 | 30 | 14.3 | 14.3 | 5.8 | 28.7 | 0.0289 | 1.01e+06 |  |  |  |  |  |  |  | ΔB7-H6_S3#16-SEED-PGLALA (bispecific antibody, part only; not given: SEED Fc chains and hu225 Fab, part only) chain, part: DLKVEMMAGGTQITPLNDNVTIFCNIFYSQPLNITLMGITWFWKSLTFDKEVKVFEFYGDHQEAFRPGAIVSPWRLKSGDASLRLPGIQLEEAGEYRCEVVVTPYKAQGTVQLEVVASPAS | 
 |  | 172 | 5 | 1.7 | 1.7 | 1.5 | 234 | 0.115 | 491000 |  |  |  |  |  |  |  | ΔB7-H6_S2#11-SEED-PGLALA (bispecific antibody, part only; not given: SEED Fc chains and hu225 Fab, part only) chain, part: DLKVEMMAGGTQITPLNDNVTIFCNIFYSQPLNITTMGITWFWKSLTFDKEVKVFEFWQDHQEAFRPGAIVSPWRLKSGDASLRLPGIQLEEAGEYRCEVVVTPLKAQGTVQLEVVASPAS | 
 |  | 171 | 5 | 2 | 2 | 2 | 205 | 0.0842 | 410000 |  |  |  |  |  |  |  | ΔB7-H6_S2#13-SEED-PGLALA (bispecific antibody, part only; not given: SEED Fc chains and hu225 Fab, part only) chain, part: DLKVEMMAGGTQITPLNDNVTIFCNIFYSQPLNITSMGITWFWKSLTFDKEVKVFEFWGDHQEAFRPGAIVSPWRLKSGDASLRLPGIQLEEAGEYRCEVVVTPYKAQGTVQLEVVASPAS | 
 |  | 122 | 7 | 2.2 | 2.2 | 1.5 | 187 | 0.111 | 597000 |  |  |  |  |  |  |  | ΔB7-H6_S2#10-SEED-PGLALA (bispecific antibody, part only; not given: SEED Fc chains and hu225 EGFR Fab, part only) chain, part: DLKVEMMAGGTQITPLNDNVTIFCNIFYSQPLNITLMGITWFWKSLTFDKEVKVFEFWGDHQEAFRPGAIVSPWGLKSGDASLRLPGIQLEEAGEYRCEVVVTPLKAQGTVQLEVVASPAS | 
1840 |  | 868 | 1 | 1 |  |  | 409 | 0.168 | 412000 |  |  | 245 |  |  |  | 1.1 | ΔB7-H6_wt-SEED-PGLALA (bispecific antibody, part only; not given: SEED Fc chains and hu225 Fab, part only) chain, part: DLKVEMMAGGTQITPLNDNVTIFCNIFYSQPLNITSMGITWFWKSLTFDKEVKVFEFFGDHQEAFRPGAIVSPWRLKSGDASLRLPGIQLEEAGEYRCEVVVTPLKAQGTVQLEVVASPAS | 
 |  |  |  |  |  |  | 188 | 0.0766 | 409000 |  |  |  |  |  |  |  | ΔB7-H6_S3#32-SEED-PGLALA (bispecific antibody, part only; not given: SEED Fc chains and hu225 EGFR Fab, part only) chain, part: DLKVEMMAGGTQITPLNDNVTIFCNIFYSQPLNITEMGITWFWKSLTFDKEVKVFEFWGDHQEAFRPGAIVSPWRLKSGDASLRLPGIQLEEAGEYRCEVVVTPVKAQGTVQLEVVASPAS | 
51.1 | 132 | 19.8 | 44 | 45.1 | 45.1 | 12.4 | 9.06 | 0.0136 | 1.5e+06 |  |  | 4.31 | 42.5 |  |  |  | ΔB7-H6_S3#18-SEED-PGLALA (bispecific antibody, part only; not given: SEED Fc chains and hu225 Fab, part only) chain, part: DLKVEMMAGGTQITPLNDNVTIFCNIFYSQPLNITYMGITWFWKSLTFDKEVKVFEFWGDHQEAFRPGAIVSPWRLKSGDASLRLPGIQLEEAGEYRCEVVVTPYKAQGTVQLEVVASPAS | 
 |  |  |  |  |  |  | 291 | 0.162 | 556000 |  |  |  |  |  |  |  | ΔB7-H6_S2#12-SEED-PGLALA (bispecific antibody, part only; not given: SEED Fc chains and hu225 Fab, part only) chain, part: DLKVEMMAGGTQITPLNDNVTIFCNIFYSQPLNITHMGITWLWKSLTFDKEVKVFEFYGDHQEAFRPGAIVSPWRLKSGDASLRLPGIQLEEAGEYRCEVVVTPLKAQGTVQLEVVASPAS | 
 |  |  |  |  |  |  | 61.6 | 0.0642 | 1.04e+06 |  |  |  |  |  |  |  | ΔB7-H6_S3#20-SEED-PGLALA (bispecific antibody, part only; not given: SEED Fc chains and hu225 Fab, part only) chain, part: DLKVEMMAGGTQITPLNDNVTIFCNIFYSQPLNITHMGITWFWKSLTFDKEVKVFEFWGDHQEAFRPGAIVSPWRLKSGDASLRLPGIQLEEAGEYRCEVFVTPLKAQGTVQLEVVASPAS | 
 |  |  |  |  |  |  | 147 | 0.122 | 830000 |  |  |  |  |  |  |  | ΔB7-H6_S2#4-SEED-PGLALA (bispecific antibody, part only; not given: SEED Fc chains and hu225 Fab, part only) chain, part: DLKVEMMAGGTQITPLNDNVTIFCNIFYSQPLNITHMGITWFWKSLTFDKEVKVFEFYADHQEAIRPGAIVSPWRLKSGDASLRLPGIQLEEAGEYRCEVVVTPYKAQGTVQLEVVASPAS | 
 |  |  |  |  |  |  | 253 | 0.148 | 585000 |  |  |  |  |  |  |  | ΔB7-H6_S2#5-SEED-PGLALA (bispecific antibody, part only; not given: SEED Fc chains and hu225 Fab, part only) chain, part: DLKVEMMAGGTQITPLNDNVTIFCNIFYSQPLNITSMGITWLWKSLTFDKEVKVFEFWGDHQEAFRPGAIVSPWRLKSGDASLRLPGIQLEEAGEYRCEVFVTPYKAQGTVQLEVVASPAS | 
 |  | 158 | 5 | 1.9 | 1.9 | 1.4 | 217 | 0.124 | 570000 |  |  |  |  |  |  |  | ΔB7-H6_S2#14-SEED-PGLALA (bispecific antibody, part only; not given: SEED Fc chains and hu225 Fab, part only) chain, part: DLKVEMMAGGTQITPLNDNVTIFCNIFYSQPLNITTMGITWFWKSLTFDKEVKVFEFFGDHQEAFRPGAIVSPWRLKSGDASLRLPGIQLEEAGEYRCEVVVTPYKAQGTVQLEVVASPAS | 
